The series is described as follows: yeast display, Sf9 membrane polyspecificity reagent, FACS + sequencing; frameworks hold sequencing errors. The gist of the method:
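Genes from sorted yeast were amplified by colony PCR, read by MiSeq 2 × 250 sequencing and filtered on CDR length. These cells carried a synthetic nanobody library in Saccharomyces cerevisiae BJ5465 and were sorted by FACS into low and high (top ~1%) gates on anti-HA and streptavidin fluorescence. Polyreactivity is labelled according to the gate of origin.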
Regarding “QVQLVESGGGLVQAGGSLRLSCAASGRTFGGNAMGWYRQAPGKESELVAAISKSGGRTYYADSVKGRFTISRDNAKNTVYLQMNSLKPEDTAVYYCNKVLSVSQAGGFDYWGQGTQVTVSS”, the “polyreactivity (PSR sort gate)” value is “high polyreactivity”.

With “QVQLVESGGGLVQAGGSLRLSCAASGRTFGGYAMGWYRQAPGKERELDASITSGGSTYYADSVKGRFTISRDNAKNTVYLEMNSLKPEDTAVYYCAADTYFETSTRAIPSNAYWGQGTQVTVSS”, the “polyreactivity (PSR sort gate)” value is listed as “low polyreactivity”.

With “QVQLVESGGGLVQAGGSLRLSCAASGRTFGGYAMGWYRQAPGKERELVAAITYSGGSTYYADSVKGRFTISRDNAKNTVYLQMNSLKPEDTAVYYCAAEGSSSYTYDYWGQGTQVTVSS”, the “polyreactivity (PSR sort gate)” value was “low polyreactivity”.

As for “QVQLVESGGGLVQAGGSLRLSCAASGRTFGGYPMGWYRQAPGKERELVASINSGGSTYYADSVKGRFTISRDNAKNTVYLQMNSLKPEDTAVYYCAKRLGGRTLRKYGYWGQGTQVTVSS”, the “polyreactivity (PSR sort gate)” value is on record as “high polyreactivity”.

Regarding “QVQLVESGGGLVQAGGSLRLSCAASGRTFGIKAMGWYRQAHGKERELVAVISFGDGGTYYADSVKGRFTISRDNAKNTVYLQMNSLKPEDTAVYYCATDYQSTSVWGGHFVINPYDYWGQGTQVTLSS”, the “polyreactivity (PSR sort gate)” value is “low polyreactivity”.

Turning to “QVQLVESGGGLVQAGGSLRLSCAASGRTFGINAMGWYRQAPGKERELVAVISFGDGGTYYADSVKGRFTISRDNAKNTVYLQMNSLKPEDTAVYYCAAAIWYIKLYFVRRTEHGYWGQGTQVTVSS”, the “polyreactivity (PSR sort gate)” value was “low polyreactivity”.

As for “QVQLVESGGGLVQAGGSLRLSCAASGRTFGINAMGWYRQAPGKERELVAVISGSGGNTYYADSVKGRFTISRDNEKNTVYLQMNSLKPEDTAVYYCATRYEKFRYDYWGQGTQVTVSS”, the “polyreactivity (PSR sort gate)” value is on record as “low polyreactivity”.

For “QVQLVESGGGLVQAGGSLRLSCAASGRTFGIYAMGWYRQAPGKERELVASITRSSGGTYYADSVKGRFTISRDNAKNTVYLQMNSLKPEDTAVYYCAARLQGRYKYGYWGQGTQVTVSS”, the “polyreactivity (PSR sort gate)” value was “high polyreactivity”.

As to “QVQLVESGGGLVQAGGSLRLSCAASGRTFGKNAMGWYRQAPAKERELVAAISWGGGRTFYADSVKGRFTISRDNAKNTVYLQMNSLKPEDTAVYYCNAVQYPRRAKYDYWGQGTQVTVSS”, the “polyreactivity (PSR sort gate)” value is “low polyreactivity”.

With “QVQLVESGGGLVQAGGSLRLSCAASGRTFGKNAMGWYRQAPGKEREFVAAITSRGGSTYYADSVKGRFTISRDNAKNTVYLQMNSLIPEDTAFYYCNREYKRPSQRTEHYYWGQGTQVTVSS”, the “polyreactivity (PSR sort gate)” value is recorded as “low polyreactivity”.

For the sequence “QVQLVESGGGLVQAGGSLRLSCAASGRTFGKYAMGWYRQAPGKERELVAAISSGGTTYYADSVKGRFTISRDNAKNTVYLQMNSLKPEDTAVYYCAADPRYPYNYWGQGTQVTVSS”, the “polyreactivity (PSR sort gate)” value is recorded as “low polyreactivity”.

With “QVQLVESGGGLVQAGGSLRLSCAASGRTFGKYAMGWYRQAPGKERELVAVITWRGVSTYADSVKGRFTISRDNAKNTVYLQMNSLKPEDTSFYYCAKTRVRGTEFGYWGLGTQVTVSS”, the “polyreactivity (PSR sort gate)” value is “low polyreactivity”.

As for “QVQLVESGGGLVQAGGSLRLSCAASGRTFGLNAMGWYRQATGKERELVAAITSGGSTYYADSVKGRFTISRDNAKKTVYLQMNSLKPEDTAVYYCAVTYNGDSSWPGDYWGQGTQVTVSS”, the “polyreactivity (PSR sort gate)” value is “low polyreactivity”.

As for “QVQLVESGGGLVQAGGSLRLSCAASGRTFGLYAMGWYRQAPGKERELVADINGSGTRTYYADSVKGRFTISRDNAKNTVYLQMNSLKPEDTAVYYCYGRYHWLYYWGQGTQVTVSS”, the “polyreactivity (PSR sort gate)” value is “high polyreactivity”.

For the sequence “QVQLVESGGGLVQAGGSLRLSCAASGRTFGLYAMGWYRQAPGKVRELVAAISWGGGRTYYADSVKGRFSISRDNAKNSVYLQMNSLKPEDTAVYYCNAVYSPRDYVGGYDYWGQGTQVTVSS”, the “polyreactivity (PSR sort gate)” value is “high polyreactivity”.

As for “QVQLVESGGGLVQAGGSLRLSCAASGRTFGLYAMGWYRQSPGKERELVATISRGGSTYYADSVKGRFTISRDNAKNTVYLQMNSLKPEDTAVYYCNAAKYTWYYGYNYWGQGTKVTVSS”, the “polyreactivity (PSR sort gate)” value is “high polyreactivity”.

Take “QVQLVESGGGLVQAGGSLRLSCAASGRTFGLYTMGWYRQAPGKERELVAAISRSGGSTYYADSVKGRFTISRDNAKNTVYLQMNSLKPEDTAVYYCATRRSFSDRYDYWGQGTQVTVSS”: the “polyreactivity (PSR sort gate)” value is given as “high polyreactivity”.

For “QVQLVESGGGLVQAGGSLRLSCAASGRTFGNNAMGRYRLAPGKVWELVAAINWSGASTYYADSVKGRFTISRDNAKNTVYLQMNSLKPEDTAVYYCAADYSYIYGFDYWGQGTQVTVSS”, the “polyreactivity (PSR sort gate)” value was “low polyreactivity”.

With “QVQLVESGGGLVQAGGSLRLSCAASGRTFGNNAMGWYRQAPGKERELVAAISRSGGSTYYADSVKGRFTISRDNAKNTVYLQMNSLKPEDTAVYYCAARLYGGYDWGQGTQVTVSS”, the “polyreactivity (PSR sort gate)” value was “high polyreactivity”.

As to “QVQLVESGGGLVQAGGSLRLSCAASGRTFGPNGMGWYRQAPGKERELLAVITSSGGRTYYADSVKGRFTISRDNAKNTVYLQMNSLKPEDTAVYYCAADAKKFGGTKNAELDYWGQGTQVTVSS”, the “polyreactivity (PSR sort gate)” value is on record as “low polyreactivity”.

For “QVQLVESGGGLVQAGGSLRLSCAASGRTFGPYAMGWYRQAPGKERELVAAITSSGGSTYYADSVKGRFTISRDNAKNTVYLQMNSLKPEDTAVYYCNNLYWRQSQDYDYWGQGTQVTVSS”, the “polyreactivity (PSR sort gate)” value was “low polyreactivity”.

With “QVQLVESGGGLVQAGGSLRLSCAASGRTFGQNAMGWYRQAPGKERELVAVISSRGGSTYYADSVKGRFTISRDNAKNTVYLQMNSLKPEDTAVYYCNTDAQSRQTIRTGYDSWGQGTQVTVSS”, the “polyreactivity (PSR sort gate)” value is given as “high polyreactivity”.

Take “QVQLVESGGGLVQAGGSLRLSCAASGRTFGRNAMGWYRQAPGKERELVAAINSGGSTKYADSVKGRFTISRDNAKNTVYLQMNSLKPEDTSVYYCARRGGFSYYYWGQGTQVTVSS”: the “polyreactivity (PSR sort gate)” value is reported as “high polyreactivity”.

With “QVQLVESGGGLVQAGGSLRLSCAASGRTFGRNAMGWYRQAPGKERELVAAITWSGVTTYYADSVKGRFTISRDNAKNTVYLQMNSLKPEDTAVYYCATGTLYSDGAIYGYWGQGTQVTVSS”, the “polyreactivity (PSR sort gate)” value is on record as “low polyreactivity”.

Regarding “QVQLVESGGGLVQAGGSLRLSCAASGRTFGRNAMGWYRQSPGKERELVAAISRSGASTYYADSVMGRFTLSRDNAKNTVYLQMNSLKPEDTAVYDCAARYSYYHGSAGFDYWGQGTQVTVSS”, the “polyreactivity (PSR sort gate)” value is on record as “high polyreactivity”.

Take “QVQLVESGGGLVQAGGSLRLSCAASGRTFGRNDMAWYRQAQGKERELVAGISIGGGTTYYADSVKGRFTISRDNAKNTVYLQMNSLKPEDTAVYYCAARSWSYLHRYGYWGQGTQVTVSS”: the “polyreactivity (PSR sort gate)” value is reported as “high polyreactivity”.

In the case of “QVQLVESGGGLVQAGGSLRLSCAASGRTFGRYAMGWYRQAPGKERELLARISYSGGSTYYADSVKGRFTISRDNAKNTDYLQMNSLKPEDTAVYYCAASFFGRFDPDRSYWGQGTQVTVSS”, the “polyreactivity (PSR sort gate)” value is recorded as “high polyreactivity”.

For the sequence “QVQLVESGGGLVQAGGSLRLSCAASGRTFGRYAMGWYRQAPGKERELVAAINKNGGSTFYADSVKGRFTISRDNAKNTVYLQMNSLKPEDTAVYYCNRTAYVRGYPPWGYDYWGQGTQVTVSS”, the “polyreactivity (PSR sort gate)” value is given as “low polyreactivity”.

“QVQLVESGGGLVQAGGSLRLSCAASGRTFGRYAMGWYRQAPGKERELVASITSRGGSTYADSVKGRFTISRDNAKNTVYLQMNSLKPEDTAVYYCASRDKYRYWYAYWRQGTQVTVSS”: the “polyreactivity (PSR sort gate)” value is listed as “high polyreactivity”.

With “QVQLVESGGGLVQAGGSLRLSCAASGRTFGRYAMGWYRQAPGKERELVATITSGGSTNYADSVKGRFTISRDNAKNTVYIQMKSMKPEDTAVYYCAAEFSPSRWAYSEGALRYYYWGQGTQVTVSS”, the “polyreactivity (PSR sort gate)” value was “low polyreactivity”.

“QVQLVESGGGLVQAGGSLRLSCAASGRTFGRYAMGWYRQAPGKERELVAVINGGGSTYYADSVKGRFTISRDNAKNTVYLQMKSLKPEDTAVYYCNAGYYWGQGTQVTVSS”: the “polyreactivity (PSR sort gate)” value is “high polyreactivity”.

For “QVQLVESGGGLVQAGGSLRLSCAASGRTFGRYDMGWYRQAPGKERELVAAITGGVITTYADSVKGRFTISRDNAKNTVYLQMKSLKREDTAVYDCAARYNVFPSPHYYYWGQGTQVTVSS”, the “polyreactivity (PSR sort gate)” value was “low polyreactivity”.

Regarding “QVQLVESGGGLVQAGGSLRLSCAASGRTFGRYVMGWYRQAPGKERELVAAIRSRGGSTYYADSVKGRFTISRDNAKNTVYLQMNSLKPEDTAVYYCNAVDRKPYRTYDYWGQGTQVTVSS”, the “polyreactivity (PSR sort gate)” value is reported as “high polyreactivity”.

In the case of “QVQLVESGGGLVQAGGSLRLSCAASGRTFGSNAMGWYRQAPGKERELVAAITKSGGGTYYADSVKGRFTISRDNAKNTVYLQMNSLKPEDTAVYYCAARRYARSGGALYPYDYWGQGSQVTVSS”, the “polyreactivity (PSR sort gate)” value is “high polyreactivity”.

On to “QVQLVESGGGLVQAGGSLRLSCAASGRTFGSNLMGWYRQAPGKERELVADISVSGGSTNYADSVKGRFTISRDNAKNTVYVQLNSLNPEDTAVYYCAASQLSDWPPYYYDFDYWGQGTQVTVSS”, for which the “polyreactivity (PSR sort gate)” value is recorded as “low polyreactivity”.

In the case of “QVQLVESGGGLVQAGGSLRLSCAASGRTFGSYAMGWYRQAPGKERELVAAITWSGTGTYYADSVKGRFTISRDNAKNTVYLQMNSLKPEDTAVYYCNTDRWYAYDWGQGTQVTVSS”, the “polyreactivity (PSR sort gate)” value is on record as “high polyreactivity”.

For the sequence “QVQLVESGGGLVQAGGSLRLSCAASGRTFGTYAMGWYRQAPGKERELVAVITNGGGTYYADSVKGRFTISRDNAKNTVYLQMNSLKPEDTAVYYCNTDRYGLRRWVYSYWGGYDYWGQGTQVTVSS”, the “polyreactivity (PSR sort gate)” value is “low polyreactivity”.

Turning to “QVQLVESGGGLVQAGGSLRLSCAASGRTFGVNAMGWYRQAPGKERELVAAISRSGGSTYYADSVKGRFTISRDNAKTTVYLQMNSLKPEDTEVYYCAKSYFGHHLTGFGYWGQGTQVTVSS”, the “polyreactivity (PSR sort gate)” value is given as “low polyreactivity”.

Regarding “QVQLVESGGGLVQAGGSLRLSCAASGRTFGVYAMGWSRQAPGKERELVAGIRWRGGSTYYADSVKGRFTISRDNEKKTVYFQMNSLKPEETAVYYCAADVYLVKYDYWGQGTQVTVSS”, the “polyreactivity (PSR sort gate)” value is reported as “low polyreactivity”.

“QVQLVESGGGLVQAGGSLRLSCAASGRTFGVYAMGWYRQAPGKERELVAAISATGGSTYYADSVKGRFTISRDNAKNTVYLQMNSLKPEDTAVYYCARGGTTLYWGQGTQVTVSS”: the “polyreactivity (PSR sort gate)” value is given as “high polyreactivity”.

With “QVQLVESGGGLVQAGGSLRLSCAASGRTFGVYAMGWYRQAPGKERELVAASRWSGGGTYYADSVKGRFTISRDNAKNTVYLQMNSLKPEDTAVYYGAATFQNSPYSRYTDMYYWGQGTQVTVSS”, the “polyreactivity (PSR sort gate)” value was “low polyreactivity”.

Source of the values: the nanobody polyreactivity screen of Harvey et al. (2022).
